Test results as given in patent US20190375826A1.
Where two headings read alike, the source gives them in different places.

Columns and labels:
[1] = target: DENV3 NS1 (nonstructural protein 1 of dengue virus type 3 strain H87) (dengue virus serotype 3, strain H87)
[2] = target: DENV3 NS1 (nonstructural protein 1 of dengue virus type 3 strain H87) (dengue virus serotype 3, strain H87); remark: listed apart in the source
[3] = target: DENV2 NS1 (nonstructural protein 1 of dengue virus type 2 strain 16681) (dengue virus serotype 2, strain 16681)
[4] = target: DENV2 NS1 (nonstructural protein 1 of dengue virus type 2 strain 16681) (dengue virus serotype 2, strain 16681); remark: listed apart in the source
[5] = target: DENV4 NS1 (nonstructural protein 1 of dengue virus type 4 strain H241) (dengue virus serotype 4, strain H241)
[6] = target: DENV4 NS1 (nonstructural protein 1 of dengue virus type 4 strain H241) (dengue virus serotype 4, strain H241); remark: listed apart in the source

B1: mAb43-1.3 (antibody, V domains shown)
VH: GELQESGPQVVRPGTSVKISCKASGYSFSNYWMHWVKQRPGQGLEWIGVIDPSDSETRLNQKFKDKATLTVDKSSSTAYMQLSSPTSEDSAIYYCARSQFGLRFAYWGQGTLVTVSA
VL: DIVMTQSPSSMTVTAGEKVTMSCQSSQSLFNSGTQKNYLTWYQQKPGQPPKLLISWASTRDSGVPDRFTGSGSGTDFTLTINGVQAEDLAVYFCQNDYDSPYTFGGGTKLEIKR
Q: B1 was tested. Which minimum detectable concentration of NS1 proteins [1] did it give?
A: Its minimum detectable concentration of NS1 proteins is 3.91 ng/mL.

Q: And the minimum detectable concentration of NS1 proteins [2]?
A: The minimum detectable concentration of NS1 proteins was 62.5 ng/mL.

B2: mAb33-7.1 (antibody, V domains shown)
VH: EVQLQESGAELAKPGASVKMSCKASGYTFTSYWMHWVKQRPGQVLEWIGYINPNTGFTEYSQKFKDKATLTAVKSSSTAYIQLTSLTSDDSAVYYCARENYRYDGAMDYWGQGTSVTVSS
VL: DIVLTQSPALMAAFPGDRVTITCSVSSSVSSSNLHWYQQKSETSPKPWIYGTSTLASGVPVRFSGSGSGTSYSLTISSMEAEDAATYYCQQWSSYPLTFGAGTKLELKR
Q: B2 was tested. Which minimum detectable concentration of NS1 proteins [3] did it give?
A: Its minimum detectable concentration of NS1 proteins is 3.91 ng/mL.

Q: And the minimum detectable concentration of NS1 proteins [4]?
A: Its minimum detectable concentration of NS1 proteins is 62.5 ng/mL.

B3: mAb22-1.5 (antibody, V domains shown)
VH: EVQLQQSGPELVKPGASVKISCKASGYTFTDYNIHWVKQSPGKSLEWIGYIYPDNGDTGYNQIFKNKATLTVDTSSSAAYMELRSLTSEDSAVYYCVRRVLLDSWGQGTSVTVSS
VL: DIQMTQTTSSLSASLGDRVTISCSASQDINNFLNWYQQKPDGTIKLLIYYTSSLQSGVPSRFSGSGSGTDYSLTISNLEPEDIATYYCQQYSKLPRTFGGGTKLEIKR
Q: Which results are given for B3?
A: minimum detectable concentration of NS1 proteins [5]: 0.977 ng/mL; minimum detectable concentration of NS1 proteins [6]: 62.5 ng/mL
